Laboratory results from patent US12097252B2, “Formulation of a peptide vaccine” (priority 2016, dated 2024).
Bridge positions count the residues as written; N and C are the ends. Ends that are not written are not given here.

Test: In-use chemical stability of vaccine emulsions by UPLC/MS after extraction of peptides
Assay type: physicochemical
Settings: for Related substances (≥0.05%) [Area %]: peak in reconstituted PRAME-DP-5P; for Peptides and related substances (≥0.05%) [Area %]: peak in reconstituted P53-DP-5P
Procedure: For samples showing complete dissolution, an emulsion stability of >2 hours, and a chemical stability of the Drug Product solutions (without additional dilution) of >2 hours, the in-use chemical stability of the vaccine emulsions with Montanide ISA 51 VG was monitored with UPLC/MS. For analysis of chemical stability of the reconstituted and emulsified Drug Products, samples were analyzed at various time points, at least up to 2 hours after dissolution. UPLC/MS analysis was performed according to the method describe above for chemical stability of the Drug Product solution, using an extra sample preparation step for extraction of the peptides from the vaccine emulsion. For sample preparation of emulsified products, the following steps were applied: • Take 300 μL Reconstitution Solution and add this to a 15 mL Greiner tube • Add 100 μL heptane • Add 200 μL of the Drug Product emulsion. Pipet the solution up and down three times. • Vortex the mixture for 30 seconds • Centrifuge the mixture for 5 minutes at 4400 rpm to obtain a two-phase system • With a 20-200 μL pipette, take a 100 μL sample from the bottom layer and transfer to a total recovery UPLC vial. • Analyze with UPLC/UV/MS according to the method described for chemical stability of the Drug Product solutions. Results Solvent Screening for Reconstitution and Emulsification
Analysis of chemical stability was performed by UPLC-MS as described in Example 1, at the section describing methods for analysis of in-use chemical stability of HPV-DP-6P and HPV-DP-7P vaccine emulsions including extraction of the peptides from the vaccine emulsion.
Purity of the Drug Product at different time points was calculated as follows: Purity (%)=100%−Sum of impurities≥0.05% area

Substance: SEQ ID NO 153: PRAME-derived peptide, component of PRAME DP-5P (LETFKAVLDGLDVLLAQEVRPRRWKLQVLDLRK)
- Related substances (≥0.05%) [Area %] (in-use storage t = 0 h): 21.89 Area %
- Related substances (≥0.05%) [Area %] (in-use storage t = 1 h): 22.70 Area %
- Related substances (≥0.05%) [Area %] (in-use storage t = 2 h): 22.51 Area %
- Related substances (≥0.05%) [Area %] (in-use storage t = 3 h): 22.59 Area %

Substance: SEQ ID NO 155: PRAME-derived peptide, component of PRAME DP-5P (WTVWSGNRASLYSFPEPEAAQPMTKKRKVDGLST)
- Related substances (≥0.05%) [Area %] (in-use storage t = 0 h): 23.35 Area %
- Related substances (≥0.05%) [Area %] (in-use storage t = 1 h): 22.85 Area %
- Related substances (≥0.05%) [Area %] (in-use storage t = 2 h): 22.65 Area %
- Related substances (≥0.05%) [Area %] (in-use storage t = 3 h): 22.62 Area %

Substance: SEQ ID NO 156: PRAME-derived peptide, component of PRAME DP-5P (IPVEVLVDLFLKEGACDELFSYLIEKVKRKKNVLR)
- Related substances (≥0.05%) [Area %] (in-use storage t = 0 h): 10.56 Area %
- Related substances (≥0.05%) [Area %] (in-use storage t = 1 h): 10.52 Area %
- Related substances (≥0.05%) [Area %] (in-use storage t = 2 h): 10.17 Area %
- Related substances (≥0.05%) [Area %] (in-use storage t = 3 h): 9.98 Area %

Substance: SEQ ID NO 160: PRAME-derived peptide, component of PRAME DP-5P (LRRLLLSHIHASSYISPEKEEQYIAQFTSQFLS)
- Related substances (≥0.05%) [Area %] (in-use storage t = 0 h): 13.61 Area %
- Related substances (≥0.05%) [Area %] (in-use storage t = 1 h): 13.49 Area %
- Related substances (≥0.05%) [Area %] (in-use storage t = 2 h): 13.34 Area %
- Related substances (≥0.05%) [Area %] (in-use storage t = 3 h): 13.40 Area %

Substance: SEQ ID NO 166: PRAME-derived peptide, component of PRAME DP-5P (SYEDIHGTLHLERLAYLHARLRELLCELGRPSMV)
- Related substances (≥0.05%) [Area %] (in-use storage t = 0 h): 13.49 Area %
- Related substances (≥0.05%) [Area %] (in-use storage t = 1 h): 14.15 Area %
- Related substances (≥0.05%) [Area %] (in-use storage t = 2 h): 13.81 Area %
- Related substances (≥0.05%) [Area %] (in-use storage t = 3 h): 13.59 Area %

Substance: SEQ ID NO 191: P53-derived synthetic long peptide, component of P53 DP-5P (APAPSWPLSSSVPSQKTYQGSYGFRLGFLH)
- Peptides and related substances (≥0.05%) [Area %] (in-use storage t = 0 h): 30.37 Area %
- Peptides and related substances (≥0.05%) [Area %] (in-use storage t = 1 h): 28.75 Area %
- Peptides and related substances (≥0.05%) [Area %] (in-use storage t = 2 h): 28.81 Area %
- Peptides and related substances (≥0.05%) [Area %] (in-use storage t = 3 h): 28.81 Area %

Substance: SEQ ID NO 193: P53-derived synthetic long peptide, component of P53 DP-5P (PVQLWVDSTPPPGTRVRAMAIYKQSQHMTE)
- Peptides and related substances (≥0.05%) [Area %] (in-use storage t = 0 h): 23.90 Area %
- Peptides and related substances (≥0.05%) [Area %] (in-use storage t = 1 h): 22.38 Area %
- Peptides and related substances (≥0.05%) [Area %] (in-use storage t = 2 h): 22.31 Area %
- Peptides and related substances (≥0.05%) [Area %] (in-use storage t = 3 h): 22.19 Area %

Substance: SEQ ID NO 194: P53-derived synthetic long peptide, component of P53 DP-5P (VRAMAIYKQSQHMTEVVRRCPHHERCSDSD)
- Peptides and related substances (≥0.05%) [Area %] (in-use storage t = 0 h): 13.00 Area %
- Peptides and related substances (≥0.05%) [Area %] (in-use storage t = 1 h): 12.02 Area %
- Peptides and related substances (≥0.05%) [Area %] (in-use storage t = 2 h): 11.87 Area %
- Peptides and related substances (≥0.05%) [Area %] (in-use storage t = 3 h): 11.63 Area %

Substance: SEQ ID NO 201: P53-derived synthetic long peptide, component of P53 DP-5P (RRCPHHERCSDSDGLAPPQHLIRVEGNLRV)
- Peptides and related substances (≥0.05%) [Area %] (in-use storage t = 0 h): 12.43 Area %
- Peptides and related substances (≥0.05%) [Area %] (in-use storage t = 1 h): 11.73 Area %
- Peptides and related substances (≥0.05%) [Area %] (in-use storage t = 2 h): 11.72 Area %
- Peptides and related substances (≥0.05%) [Area %] (in-use storage t = 3 h): 11.60 Area %

Substance: SEQ ID NO 203 intramolecular disulfide: related substance: intramolecular disulfide of the peptide set forth in SEQ ID NO: 203 (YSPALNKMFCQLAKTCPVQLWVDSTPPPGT; disulfide 10-16 (inferred))
- Peptides and related substances (≥0.05%) [Area %] (in-use storage t = 0 h): <
- Peptides and related substances (≥0.05%) [Area %] (in-use storage t = 1 h): 1.05 Area %
- Peptides and related substances (≥0.05%) [Area %] (in-use storage t = 2 h): 1.54 Area %
- Peptides and related substances (≥0.05%) [Area %] (in-use storage t = 3 h): 1.87 Area %

Substance: SEQ ID NO 203: P53-derived synthetic long peptide, component of P53 DP-5P (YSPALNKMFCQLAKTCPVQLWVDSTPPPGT)
- Peptides and related substances (≥0.05%) [Area %] (in-use storage t = 0 h): 13.73 Area %
- Peptides and related substances (≥0.05%) [Area %] (in-use storage t = 1 h): 16.73 Area %
- Peptides and related substances (≥0.05%) [Area %] (in-use storage t = 2 h): 16.21 Area %
- Peptides and related substances (≥0.05%) [Area %] (in-use storage t = 3 h): 15.56 Area %
